We go through 16 molecules from patent US20030068675, “Position dependent recognition of GNN nucleotide triplets by zinc fingers” (published 2003).

Common to all, as to test: EMSA
Common to all, as to settings: tags: MBP fusion

One data set deals with T1, ZFP SBS#1375 (synthetic).
T1 chain: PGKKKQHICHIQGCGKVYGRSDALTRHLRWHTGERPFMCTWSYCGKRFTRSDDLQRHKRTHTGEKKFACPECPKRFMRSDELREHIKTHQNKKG
The method, boiled down:
(§1)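 Purified ZFP was titrated against labeled double-stranded target (1 nM or lower, at least 10-fold below expected Kd) carrying the natural binding site with flanks. Binding buffer was 10 mM Tris pH 7.5, 100 mM KCl, 1 mM MgCl2, 0.1 mM ZnCl2, 5 mM DTT, 10% glycerol, 0.02% BSA, with equilibration for at least 45 min. Bound and free target were separated on a 10% polyacrylamide gel.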

Another data set deals with T2, ZFP SBS#1374 (synthetic, UniProt P08047).
T2 chain: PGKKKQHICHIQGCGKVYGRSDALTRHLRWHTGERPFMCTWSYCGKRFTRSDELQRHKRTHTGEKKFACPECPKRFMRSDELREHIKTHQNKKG
In outline: as §1

Another data set addresses T3, ZFP SBS#1378 (synthetic).
T3 chain: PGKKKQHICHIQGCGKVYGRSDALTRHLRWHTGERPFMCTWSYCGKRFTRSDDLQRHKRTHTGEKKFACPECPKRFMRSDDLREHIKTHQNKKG
In outline: as §1

The target of another data set is T4, ZFP SBS#1379 (synthetic).
T4 chain: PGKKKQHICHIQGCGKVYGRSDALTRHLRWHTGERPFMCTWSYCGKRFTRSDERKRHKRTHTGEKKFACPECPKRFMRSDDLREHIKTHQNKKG
In outline:
as §1

In a further data set the target is T5, ZFP SBS#1376 (synthetic).
T5 chain: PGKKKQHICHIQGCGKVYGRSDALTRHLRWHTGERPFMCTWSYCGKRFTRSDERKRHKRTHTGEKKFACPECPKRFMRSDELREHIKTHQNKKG
In outline: as §1

The target in another data set is T6, ZFP SBS#1377 (synthetic, UniProt P08047).
T6 chain: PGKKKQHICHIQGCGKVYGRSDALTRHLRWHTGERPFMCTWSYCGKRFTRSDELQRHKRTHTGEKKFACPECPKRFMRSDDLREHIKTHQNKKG
In outline:
as §1

The target in another data set is ZFP SBS#1394 (synthetic, UniProt P08047). The method, boiled down: as §1
Sequence of ZFP SBS#1394 (P08047 other isoform, or with tags, fused parts or gaps): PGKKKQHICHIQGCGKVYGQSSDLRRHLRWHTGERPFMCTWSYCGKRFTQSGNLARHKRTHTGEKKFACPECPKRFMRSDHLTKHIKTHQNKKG
A further data set has as its target ZFP SBS#1393 (synthetic). In outline: as §1
The next data set addresses T7, ZFP SBS#1382 (synthetic).
T7 chain: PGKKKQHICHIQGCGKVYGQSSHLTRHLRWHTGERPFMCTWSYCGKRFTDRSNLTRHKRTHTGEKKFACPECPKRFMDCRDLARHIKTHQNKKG
The method, boiled down: as §1

The target in another data set is T8, ZFP SBS#1381 (synthetic).
T8 chain: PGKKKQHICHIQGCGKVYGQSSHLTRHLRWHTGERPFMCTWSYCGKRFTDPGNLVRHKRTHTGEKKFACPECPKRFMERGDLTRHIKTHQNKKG
In outline:
as §1

The target of the next data set is T9, ZFP SBS#1380 (synthetic).
T9 chain: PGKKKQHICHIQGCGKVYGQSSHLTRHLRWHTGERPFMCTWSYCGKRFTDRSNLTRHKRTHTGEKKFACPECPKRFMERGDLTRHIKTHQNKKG
In outline: as §1

The next data set has as its target T10, ZFP SBS#1383 (synthetic).
T10 chain: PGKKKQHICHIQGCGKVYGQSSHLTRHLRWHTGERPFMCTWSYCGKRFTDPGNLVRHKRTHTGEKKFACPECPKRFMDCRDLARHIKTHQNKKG
In outline:
as §1

In another data set the target is T11, ZFP SBS#1373 (synthetic, UniProt P08047).
T11 chain: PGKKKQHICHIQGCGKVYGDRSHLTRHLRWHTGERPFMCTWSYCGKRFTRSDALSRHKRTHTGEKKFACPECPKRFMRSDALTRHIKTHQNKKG
The method, boiled down: as §1

The next data set deals with ZFP SBS#1406 (synthetic). In outline:
as §1

A further data set deals with T12, ZFP SBS#1368 (synthetic).
T12 chain: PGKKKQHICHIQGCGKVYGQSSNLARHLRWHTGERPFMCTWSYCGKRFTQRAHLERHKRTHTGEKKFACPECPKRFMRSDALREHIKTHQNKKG
The method, boiled down:
as §1

The target of a further data set is T13, ZFP SBS#1369 (synthetic).
T13 chain: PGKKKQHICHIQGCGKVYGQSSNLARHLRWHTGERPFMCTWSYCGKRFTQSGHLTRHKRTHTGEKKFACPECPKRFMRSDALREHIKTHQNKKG
In outline: as §1

In a further data set the target is ZFP SBS#1385 (synthetic). In outline: as §1
Sequence of ZFP SBS#1385 (synthetic) (chain, as listed by the source): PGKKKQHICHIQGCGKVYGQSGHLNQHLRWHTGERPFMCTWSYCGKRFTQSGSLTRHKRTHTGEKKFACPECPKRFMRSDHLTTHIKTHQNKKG
Another data set deals with T14, ZFP SBS#1386 (synthetic).
T14 chain: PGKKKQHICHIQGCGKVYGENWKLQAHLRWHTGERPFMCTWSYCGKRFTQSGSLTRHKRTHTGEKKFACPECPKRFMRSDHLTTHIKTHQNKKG
The method, boiled down: as §1

The next data set deals with T15, ZFP SBS#1384 (synthetic, UniProt P08047).
T15 chain: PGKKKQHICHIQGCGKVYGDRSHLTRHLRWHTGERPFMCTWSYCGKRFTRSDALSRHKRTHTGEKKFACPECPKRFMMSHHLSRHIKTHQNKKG
The method, boiled down: as §1

The target of the next data set is ZFP SBS#262 (synthetic). In outline:
as §1

For another data set, the target named is ZFP SBS#263 (synthetic, UniProt P08047). In outline:
as §1

In another data set the target is T16, ZFP SBS#1408 (synthetic).
T16 chain: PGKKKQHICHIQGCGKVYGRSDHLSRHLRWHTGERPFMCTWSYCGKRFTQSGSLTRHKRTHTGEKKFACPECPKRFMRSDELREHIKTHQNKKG
In outline:
as §1

The next data set has as its target T17, ZFP SBS#1409 (synthetic).
T17 chain: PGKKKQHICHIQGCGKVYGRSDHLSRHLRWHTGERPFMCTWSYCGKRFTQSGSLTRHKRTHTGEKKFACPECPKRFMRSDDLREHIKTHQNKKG
The method, boiled down: as §1

A further data set has as its target ZFP SBS#1407 (synthetic). The method, boiled down: as §1
The next data set addresses T18, ZFP SBS#1396 (synthetic).
T18 chain: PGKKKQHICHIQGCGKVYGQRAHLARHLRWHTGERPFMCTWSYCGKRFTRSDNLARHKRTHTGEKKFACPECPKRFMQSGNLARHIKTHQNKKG
In outline: as §1

In another data set the target is ZFP SBS#1397 (synthetic). The method, boiled down:
as §1

In another data set the target is ZFP SBS#1395 (synthetic). In outline: as §1
Sequence of ZFP SBS#1395 (synthetic) (chain, as listed by the source): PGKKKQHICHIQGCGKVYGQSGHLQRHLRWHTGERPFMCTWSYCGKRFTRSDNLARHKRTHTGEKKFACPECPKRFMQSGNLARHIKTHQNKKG
In the next data set the target is T19, ZFP SBS#1404 (synthetic).
T19 chain: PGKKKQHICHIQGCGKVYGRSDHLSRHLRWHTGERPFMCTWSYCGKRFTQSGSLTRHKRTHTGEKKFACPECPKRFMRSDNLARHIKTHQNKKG
The method, boiled down:
as §1

The target of the next data set is T20, ZFP SBS#1405 (synthetic).
T20 chain: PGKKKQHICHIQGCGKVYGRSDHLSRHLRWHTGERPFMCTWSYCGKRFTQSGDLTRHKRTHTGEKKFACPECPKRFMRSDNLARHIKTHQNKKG
The method, boiled down:
as §1

In the next data set the target is ZFP SBS#1403 (synthetic). The method, boiled down: as §1
For a further data set, the target named is T21, ZFP SBS#1400 (synthetic).
T21 chain: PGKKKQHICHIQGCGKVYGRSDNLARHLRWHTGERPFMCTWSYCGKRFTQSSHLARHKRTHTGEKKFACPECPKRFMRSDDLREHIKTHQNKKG
In outline:
as §1

The next data set addresses T22, ZFP SBS#1331 (synthetic).
T22 chain: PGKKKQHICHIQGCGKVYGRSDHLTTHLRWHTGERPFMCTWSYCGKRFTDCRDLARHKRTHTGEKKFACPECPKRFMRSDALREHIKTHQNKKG
The method, boiled down:
as §1

A further data set deals with T23, ZFP SBS#1329 (synthetic).
T23 chain: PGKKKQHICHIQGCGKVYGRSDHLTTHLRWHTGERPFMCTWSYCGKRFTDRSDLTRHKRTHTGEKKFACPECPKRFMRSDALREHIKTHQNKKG
The method, boiled down:
as §1

The target in another data set is T24, ZFP SBS#1389 (synthetic).
T24 chain: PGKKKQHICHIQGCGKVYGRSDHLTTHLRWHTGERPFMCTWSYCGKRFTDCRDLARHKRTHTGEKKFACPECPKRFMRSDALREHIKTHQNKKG
In outline: as §1

Sequence of ZFP SBS#1406 (synthetic) (chain, as listed by the source): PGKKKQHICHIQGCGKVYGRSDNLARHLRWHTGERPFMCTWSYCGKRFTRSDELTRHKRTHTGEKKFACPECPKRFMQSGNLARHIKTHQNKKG
Sequence of ZFP SBS#1397 (synthetic) (chain, as listed by the source): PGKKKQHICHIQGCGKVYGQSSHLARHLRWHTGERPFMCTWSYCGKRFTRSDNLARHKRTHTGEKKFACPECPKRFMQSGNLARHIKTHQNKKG
Sequence of ZFP SBS#262 (synthetic) (chain, as listed by the source): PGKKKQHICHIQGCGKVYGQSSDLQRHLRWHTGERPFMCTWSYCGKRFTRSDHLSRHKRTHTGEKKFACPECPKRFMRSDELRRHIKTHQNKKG
Sequence of ZFP SBS#1407 (synthetic) (chain, as listed by the source): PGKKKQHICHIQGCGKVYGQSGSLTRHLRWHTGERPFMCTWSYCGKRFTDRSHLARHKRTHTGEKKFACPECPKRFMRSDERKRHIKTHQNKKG
Sequence of ZFP SBS#263 (P08047 other isoform, or with tags, fused parts or gaps): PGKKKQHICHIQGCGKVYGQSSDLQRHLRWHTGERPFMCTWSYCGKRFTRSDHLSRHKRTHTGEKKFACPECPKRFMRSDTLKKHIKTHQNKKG

B1: CCGGCGGTG (dsDNA)
DNA 1: CCGGCGGTG
DNA 2: CACCGCCGG
For the molecule B1, the equilibrium dissociation constant (Kd) in the data set with ZFP SBS#1375 is 0.008 nM; with ZFP SBS#1374 it was 0.003 nM; with ZFP SBS#1378 it was 0.012 nM; with ZFP SBS#1379 it was 0.25 nM; in the data set with ZFP SBS#1376 it was 0.858 nM; in the data set with ZFP SBS#1377, 0.012 nM.

B2: TGGGAAGCT (dsDNA)
DNA 1: TGGGAAGCT
DNA 2: AGCTTCCCA
For the molecule B2, the equilibrium dissociation constant (Kd) with ZFP SBS#1394 came out at 0.04 nM; in the data set with ZFP SBS#1393, 0.1 nM.

B3: GCCGACGGT (dsDNA)
DNA 1: GCCGACGGT
DNA 2: ACCGTCGGC
As to B3, the dissociation constant Kd stood at 3.1 nM with ZFP SBS#1382, 0.23 nM in the data set with ZFP SBS#1381, 0.076 nM with ZFP SBS#1380 and 1.74 nM with ZFP SBS#1383.

B4: GTGGTGGGC (dsDNA)
DNA 1: GTGGTGGGC
DNA 2: GCCCACCAC
B4 had a dissociation constant (Kd) with ZFP SBS#1373 of 0.025 nM. That is a picomolar value.

B5: GAAGCGGAG (dsDNA)
DNA 1: GAAGCGGAG
DNA 2: CTCCGCTTC
Molecule B5 came in with a Kd with ZFP SBS#1406 of 0.025 nM. In other words, the picomolar range.

B6: CTGGGAGAT (dsDNA)
DNA 1: CTGGGAGAT
DNA 2: ATCTCCCAG
B6: the equilibrium dissociation constant (Kd) was 0.051 nM with ZFP SBS#1368 and 0.227 nM with ZFP SBS#1369.

B7: TGGGCAAGA (dsDNA)
DNA 1: TGGGCAAGA
DNA 2: TCTTGCCCA
In the case of B7, the Kd is 0.229 nM with ZFP SBS#1385 and 0.193 nM with ZFP SBS#1386.

B8: GGTGTGGGC (dsDNA)
DNA 1: GGTGTGGGC
DNA 2: GCCCACACC
In the data set with ZFP SBS#1384, B8 came in with a Kd of 0.013 nM.

B9: GCGGGGGCT (dsDNA)
DNA 1: GCGGGGGCT
DNA 2: AGCCCCCGC
For the molecule B9, the Kd with ZFP SBS#262 came out at 20 nM; with ZFP SBS#263, 1 nM.

B10: CCGGCAGGG (dsDNA)
DNA 1: CCGGCAGGG
DNA 2: CCCTGCCGG
As to B10, the figures for the Kd with ZFP SBS#1408 and with ZFP SBS#1409 were 0.305 nM and 0.153 nM, respectively.

B11: GCGGGCGCA (dsDNA)
DNA 1: GCGGGCGCA
DNA 2: TGCGCCCGC
For B11, in the data set with ZFP SBS#1407, binding was put at a Kd of 0.585 nM.

B12: GAAGAGGGA (dsDNA)
DNA 1: GAAGAGGGA
DNA 2: TCCCTCTTC
Turning to B12, the Kd in the data set with ZFP SBS#1396 was found to be 0.107 nM; with ZFP SBS#1397, 0.14 nM; in the data set with ZFP SBS#1395, 0.025 nM.

B13: GAGGCAGGG (dsDNA)
DNA 1: GAGGCAGGG
DNA 2: CCCTGCCTC
Consider B13, for which the figures for the dissociation constant (Kd) with ZFP SBS#1404 and in the data set with ZFP SBS#1405 were 0.022 nM and 0.045 nM, respectively.

B14: ATGGCAATG (dsDNA)
DNA 1: ATGGCAATG
DNA 2: CATTGCCAT
B14: in the data set with ZFP SBS#1403, binding was put at a Kd of 0.07 nM.

B15: CCGGGTGAG (dsDNA)
DNA 1: CCGGGTGAG
DNA 2: CTCACCCGG
B15 came in with a dissociation constant Kd in the data set with ZFP SBS#1400 of 0.371 nM.

B16: CTGGCCTGG (dsDNA)
DNA 1: CTGGCCTGG
DNA 2: CCAGGCCAG
For the molecule B16, the Kd turned out to be 0.388 nM with ZFP SBS#1331, 0.68 nM in the data set with ZFP SBS#1329 and 0.175 nM with ZFP SBS#1389.
